# Tests used:
# C3H10T½-BMP2 cells [1] = assay: FACS for apoptosis and cell cycle progression; assay type: cell-based, murine; conditions: CDDP 25 μM; etoposide 10 μM; TAK1 variants stably co-expressed
# Description: Exponentially growing cells were harvested 48 hours post-seeding or at different stages at and after confluence by trypsinization and fixation with 80% methanol. Cellular DNA content was determined by staining cells with RNAseS/propidium iodide, and measuring fluorescence in a Becton Dickinson FACScan. For each cell population, 10,000 cells were analyzed, and the proportions in G0/G1, G2/M and S-phases were estimated by using Modfit cell cycle analysis software. Information on cell size (e.g. due to differentiation) and complexity could be obtained from forward and side scatter data following evaluation of relevant cell populations.
# To determine whether TAK1-mediated effects in the assay systems above resulted from apoptosis, C3H10T½-BMP2 cells co-expressing TAK1 variants were assayed by FACS for apoptosis and cell cycle progression.
# C3H10T½-BMP2 cells [2] = assay: Semi-quantitative RT-PCR of osteo-/chondrogenic marker genes and Alcian Blue staining; assay type: cell-based, murine; conditions: co-expression in C3H10T½-BMP2 cells
# Description: (§1) Proteoglycan-secreting chondrocytes were identified by staining with Alcian Blue at pH 2.5 (Alcian Blue 8GS, Roth, Karlsruhe).
# Total cellular RNA was prepared by TriReagent LS according to the manufacturer's protocol (Molecular Research Center Inc., Ohio, Miss.). Five μg of total RNA was reverse transcribed with oligo-dT primers and cDNA aliquots were subjected to PCR. RT-PCR was normalized by the transcriptional levels of HPRT. The primer pairs and PCR conditions used to evaluate osteo-/chondrogenic differentiation, for collagen Ia1, collagen IIa1, osteocalcin, and the PTH/PTHrP-receptor have been described (Hoffmann A et al, J. Cell Sci 115: 769-781, 2002).
# C3H10T½-BMP2 cells [3] = assay: Histological analysis and alkaline phosphatase staining of C3H10T½-BMP2 cells; assay type: cell-based, murine
# Description: Murine C3H10T½ progenitor cells were cultured in high-glucose DMEM containing 10% fetal calf serum, as described (Ahrens Met al, DNA Cell Biol, 12: 871-880, 1993). Cells were stably transfected with expression plasmids encoding wt TAK1, dominant-negative (dn) or constitutively active (ca) TAK1 in pMT7T3-f1 using DOSPER™ according to the manufacturer's protocol (Roche, Mannheim) and a selection plasmid conferring puromycin resistance (pBSpacDp: parental C3H10T½ cells) or G418-resistance (pAG60: BMP2-expressing C3H10T½ cells). Individual clones were picked, propagated, and tested for recombinant expression of TAK1-variants by RT-PCR using a vector-specific and a gene-specific primer. Control cell lines (empty to expression vector) were established at the same time. Cells were plated at a density of 5,000 cells/cm^2. After reaching confluence (arbitrarily termed day 0) ascorbic acid (50 microgram/milliliter (μg/ml)) and b-glycerophosphate (10 millimolar (mM)) were added.
# as §1
# Osteoblast formation was evaluated as a measure of TAK1 influence on osteo-/chondrogenic differentiation potential. C3H10T½-BMP2 cells co-expressing TAK1 and its molecular variants were assessed histologically for alkaline phosphatase (ALP) activity (FIG. 8C), which is indicative of osteoblast differentiation.
# SMAD proteins = assay: Co-immunoprecipitation of TAK1 variants with SMADs from HEK293T cells; assay type: binding; conditions: SMAD7, R-SMADs 1-3, 5, SMAD4
# Description: Co-immunoprecipitation were conducted as described (Verschueren K et al, J. Biol. Chem, 274: 20489-20498, 1999). Human embryonic kidney (HEK) 293T cells were plated at 3×10^6 cells/petri dish (55 square centimeters (cm^2)) one day prior to transfection. For transient transfections, 1 μg of Flag-tagged expression plasmid and 2 μg of Myc- or HA-tagged expression plasmids were utilized. DNA content was normalized with empty vector. Transfections were performed with FuGENE6 (Roche, Mannheim). Roughly 36 hours post-transfection cells were dislodged from dishes and harvested by centrifugation. Pellets were shock frozen in liquid nitrogen. […] reactions were performed in lysis buffer. Cell extracts and immunoprecipitates were analyzed by SDS-PAGE and Western blot analysis using the appropriate antibodies.
# Toward this end, co-immunoprecipitation with various combinations of wild-type TAK1 (TAK1wt) and R-SMADs, either in a latent form or post-activation by constitutively active BMP type I receptor (ALK6ca, BMPR-IB) or activin type I receptor ALK4ca (ActR-IB), I-SMADs and SMAD4, were conducted. […] TAK1 interaction with R-SMADs was typically stronger in the absence of constitutively active receptors (the exception being SMAD3), which may reflect a reduced affinity for activated, i.e. phosphorylated R-SMADs by TAK1, except with SMAD3.
# SMAD proteins only bind TAK1 with an intact or a constitutively active kinase domain. Different TAK1 variants such as TAK1wt, TAK1ca, TAK1dn and two deletions, TAKDN (lacking amino acids 1-300; FIG. 1a) and TAKDC (lacking 301-606; FIG. 1a), respectively, were tested for their ability to bind to R-SMADs (using SMAD1 as a representative) or I-SMAD6 and I-SMAD7.
molecule,measurement,setting,value
"TAK1dn: dominant-negative TAK1 mutant (K63W), kinase inactive (protein, left off: small tags and cut ends) MSTASAASSSSSSSASEMIEAPSQVLNFEEIDYKEIEVEEVVGRGAFGVVCKAKWRAKDVAIWQIESESERKAFIVELRQLSRVNHPNIVKLYGACLNPVCLVMEYAEGGSLYNVLHGAEPLPYYTAAHAMSWCLQCSQGVAYLHSMQPKALIHRDLKPPNLLLVAGGTVLKICDFGTACDIQTHMTNNKGSAAWMAPEVFEGSNYSEKCDVFSWGIILWEVITRRKPFDEIGGPAFRIMWAVHNGTRPPLIKNLPKPIESLMTRCWSKDPSQRPSMEEIVKIMTHLMRYFPGADEPLQYPCQYSDEGQSNSATSTGSFMDIASTNTSNKSDTNMEQVPATNDTIKRLESKLLKNQAKQQSESGRLSLGASRGSSVESLPPTSEGKRMSADMSEIEARIVATAGNGQPRRRSIQDLTVTGTEPGQVSSRSSSPSVRMITTSGPTSEKPARSHPWTPDDSTDTNGSDNSIPMAYLTLDHQLQPLAPCPNSKESMAVFEQHCKMAQEYMKVQTEIALLLQRKQELVAELDQDEKDQQNTSRLVQEHKKLLDENKSLSTYYQQCKKQLEVIRSQQQKRQGTS",apoptosis (subG0-G1 peak),C3H10T½-BMP2 cells [1],did not induce apoptosis
same,"expression of osteogenic marker genes (osteocalcin, PTH/PTHrP receptor)",C3H10T½-BMP2 cells [2],no effect
same,growth phenotype of C3H10T½-BMP2 cells expressing the TAK1 variant,C3H10T½-BMP2 cells [3]; after confluence,Multiple layer growth
same,osteoblast-like cell formation / ALP activity,"C3H10T½-BMP2 cells [3]; compared to C3H10T½-BMP2 cells, 10 days post-confluence",enhanced ALP activity
same,binding of TAK1 variant to SMAD proteins (co-immunoprecipitation),SMAD proteins,blocked binding
